# Experiment: soluble on expression in E. coli; label from the status in PepcDB or PDB records
row,Sequence,soluble on expression in E. coli
1,KDYDAYLSYTKVDPDQWNQETGEEERFALEILPDMLEKHYGYKLFIPDRDLIPTGTYIEDVARCVDQSKRLIIVMTPNYVVRRGWSIFELETRLRNMLVTGEIKVILIECSELRGIMNYQEVEALKHTIKLLTVIKWHGPKCNKLNSKFWKRLQYEMPF,soluble
2,KFWRRWAGQSQYKGRWREMVTRSALALKLLTSRKHGGIVAAATFGLPETEAGERNWDYRYTWIRDASFTVYAFMRLGYTDEANAFMGWVRGRLDDCCEQTEKLGILYALDGHAELPEEHLDHLTGYGGAQPVRIGNEAYKQVQLDIYGELMDAVYLANKYGDAISHDGWQHVVRQVDYVCEHWNDRDVGIWEMRGGDQHFLHSRLMCWVALDRALRLAFKRSLSGPFERWNKVREDIQNDIWDNFWNEELGHFVQYKGSRNLDASMLLMPLVRFVGANDPKWLATLDAIEAALVRDGMVFRYRNDDDHDDGLAGEEGAFVACSFWYVECLARAGRVEQAHLEFEQLLRYANPLGLYAEEFDGHARHLGNTPQALSHLALISAASFLDRKLSGEQALWQP,not soluble
3,KHLPEPFRIRVIEPVKRTTRAYREEAIIKSGMNPFLLDSEDVFIDLLTDSGTGAVTQSMQAAMMRGDEAFSGSRSYYALAESVKNIFGYQYTIPTHQGRGAEQIYIPVLIKKREQEKGLDRSKMVAFSNYFFDTTQGHSQINGCTVRNVYIKEAFDTGVRYDFKGNFDLEGLERGIEEVGPNNVPYIVATITSNSAGGQPVSLANLKAMYSIAKKYDIPVVMDSARFAENAYFIKQREAEYKDWTIEQITRETYKYADMLAMSAKKDAMVPMGGLLCMKDDSFFDVYTECRTLCVVQEGFPTYGGLEGGAMERLAVGLYDGMNLDWLAYRIAQVQYLVDGLEEIGVVCQQAGGHAAFVDAGKLLPHIPADQFPAQALACELYKVAGIRAVEIGSFLLGRDPKTGKQLPCPAELLRLTIPRATYTQTHMDFIIEAFKHVKENAANIKGLTFTYEPKVLRHFTAKLKEV,soluble
4,KIVCDFTEYNPLHKGHKYALEKGKEHGIFISVLPGPLERSGRGIPYFLNRYIRAEMAIRAGADIVVEGPPMGIMGSGQYMRCLIKMFYSLGAEIIPRGYIPEKTMEKVIDCINKGYHIQVKPYKIICIETGEILGEKLNIDNYVIASMSQMIYKLNREGLKFNPKFVFVKRLEGISGTKIREAIFSGKFEDIKNMLPKTTLSILKELYDNGKL,not soluble
5,KKMAFTLADRVTEEMLADKAALVVEVVEENYHDAPIVGIAVVNEHGRFFLRPETALADPQFVAWLGDETKKKSMFDSKRAAVALKWKGIELCGVSFDLLLAAYLLDPAQGVDDVAAAAKMKQYEAVRPDEAVYGKGAKRAVPDEPVLAEHLVRKAAAIWELERPFLDELRRNEQDRLLVELEQPLSSILAEMEFAGVKVDTKRLEQMGKELAEQLGTVEQRIYELAGQEFNINSPKQLGVILFEKLQLPVLKKTKTGYSTSADVLEKLAPYHEIVENILHYRQLGKLQSTYIEGLLKVVRPATKKVHTIFNQALTQTGRLSSTEPNLQNIPIRLEEGRKIRQAFVPSESDWLIFAADYSQIELRVLAHIAEDDNLMEAFRRDLDIHTKTAMDIFQVSEDEVTPNMRRQAKAVNYGIVYGISDYGLAQNLNISRKEAAEFIERYFESFPGVKRYMENIVQEAKQKGYVTTLLHRRRYLPDITSRNFNVRSFAERMAMNTPIQGSAADIIKKAMIDLNARLKEERLQAHLLLQVHDELILEAPKEEMERLCRLVPEVMEQAVTLRVPLKVDYHYGSTWYDAK,soluble
6,KKSPMLCGQYPVKSEGKELKIVVQPETQHRARYLTEGSRGSVKDRTQQGFPTVKLEGHNEPVVLQVFVGNDSGRVKPHGFYQACRVTGRNTTPCKEVDIEGTTVIEVGLDPSNNMTLAVDCVGILKLRNADVEARIGIAGSKKKSTRARLVFRVNIMRKDGSTLTLQTPSSPILCTQPAGVPEILKKSLHSCSVKGEEEVFLIGKNFLKGTKVIFQENVSDENSWKSEAEIDMELFHQNHLIVKVPPYHDQHITLPVSVGIYVVTNAGRSHDVQPFTYTPD,soluble
7,KKYVVFDMDGTLTTTDFEDVKQYAGEFFNSNYVAKMYPDVDNVVKYYASKGYGILYLTARPYWLSEESQTWLWKNGFPMGLLHTYTGGDVLLGEEAESFKAGYLNQLKSQGIEFDYGFGNEKTDVEAYSNIGIAKSNIFTIGKNRGIDGSVSIVSYTDYLKQLSGN,not soluble
8,KMETAFDIERTMGRRIEYVSNILAVSESELGSLYSYDIMIDLGEEGKAKTPEALRALDSIARHAEAYSLTKRTTSILNILKDLNQTLHDGDQAYYSIPGDAEEVAQQLLLYENAGGSEAESWIDYEYRRLRLKVEMTSYNSGEAEWELQDITDYARKLFPEAEITPVGSLPQFTTMMQYVVRGQ,not soluble
9,KMGPEYTKMQNLVKSEGLHTVCQEAGCPNIYECWEDREATFLIGGDQCTRRCDFCQIDTGKPEALDRDEPRRVGESVVTMDLNYATITGVARDDLEDGGAWLYAETVRQIHAQTAGREAGRTKVELLAPDFNAEPDQLAEVFSARPEVFAHNVETVPRIFKRIRPGFRYERSLKVITEARDYGLVTKSNLILGMGETREEVSEALRQLHDAGCELITITQYLRPSVRHHPVERWVKPHEFVELKEEAEEIGFSGVMSGPLVRSSYRAGRLYQMAMELRQSAAPQGGAQVASQAV,not soluble
10,KNTPVRMRGTLQDITERTKIEDSLLLSEERYRSFIQNFTGIAFQQDEDLNLEFVKGNVEEITGYSEEELMSKKRWRKIVEKQDLPLFLKKEREIKNARSPYSGKLSYRIRCKDGKIKWVHEVYQKIPGKN,not soluble
11,KNVLILGAGGQIARHVINQLADKQTIKQTLFARQPAKIHKPYPTNSKIIMGDVLNHAALKQAMQGQDVVYANLTGEDLDIQANSVIAAMKACDVKRLIFVLSLGIYNEVPGKFGEWNNAVIGEPLKPFRRAADAIEASGLEYTILRPAWLTDEDIIDYELTSRNEPFKGTIVSRKSVAALITDIINKPEKHIGENIGINQPGTDG,not soluble
12,KPLQRKLASGMVKKHSIIRALNKVYKRDVYFPGEEELNEVLSDEHKSGANTWEETTELNFEPDMTTVTTEDQSAKPPEQKTPSKDVLDFTQNFLQP,not soluble
13,KQATMKNAALKQLTKDADEILHLIKVQLDNLTLPSCPLYEEVLDTQMFGLQKEVDFAVKLGLVDREDGKQIMLRLEKELSKLHEAFTLV,not soluble
14,KQKKMQAMIVTSKPYCVIKRIHRDLHRGVTCINDAEGTYNHEKKAVLITILTREEFSDFKYLMLKADPKAFVSVAENVHIIGRFVDDD,not soluble
15,KREHAKQHGMIRTEITGAEIAEEMEKERRLFQLQMCEYLIKVNEIKTKKGVDLLQNLIKYYHAQCNFFQDGLKTADKLKQYIEKLAADLYNIKQTQDEEKKQLTALRDLIKSSLQLDQKESRRDSQSRQGGYSMHQLQGNKEYGSEKKGYLLKKSDGIRKVWQRRKCSVKNGILTISHATSNRQPAKLNLLTCQVKPNAEDKKSFDLISHNRTYHFQAEDEQDYVAWISVLTNSKEEALTMAFRGEQSAGENSLEDLTKAIIEDVQRLPGNDICCDCGSSEPTWLSTNLGILTCIECSGIHREMGVHISRIQSLELDKLGTSELLLAKNVGNNSFNDIMEANLPSPSPKPTPSSDMTVRKEYITAKYVDHRFSRKTCSTSSAKLNELLEAIKSRDLLALIQVYAEGVELMEPLLEPGQELGETALHLAVRTADQTSLHLVDFLVQNCGNLDKQTALGNTVLHYCSMYSKPECLKLLLRSKPTVDIVNQAGETALDIAKRLKATQCEDLLSQAKSGKFNPHVHVEYEWNLRQEEIDESDDDLDDKPSPIKKERSPRPQSFCHSSSISPQDKLALPGFSTPRDKQRLSYGAFTNQIFVSTSTDSPTSPTTEAPPLPPRNAGKGPTGPPSTLPLSTQTSSGSSTLSKKRPPPPPPGHKRTLSDPPSPLPHGPPNKGAVPWGNDGGPSSSSKTTNKFEGLSQQSSTSSAKTALGPRVLPKLPQKVALRKTDHLSLDKATIPPEIFQKSSQLAELPQKPPPGDLPPKPTELAPKPQIGDLPPKPGELPPKPQLGDLPPKPQLSDLPPKPQMKDLPPKPQLGDLLAKSQTGDVSPKAQQPSEVTLKSHPLDLSPNVQSRDAIQKQASEDSNDLTPTLPETPVPLPRKINTGKNKVRRVKTIYDCQADNDDELTFIEGEVIIVTGEEDQEWWIGHIEGQPERKGVFPVSFVHILSD,soluble
16,KRYIPSVNDFVIGVIIGTFSDSYKVSLQNFSSSVSLSYMAFPNASKKNRPTLQVGDLVYARVCTAEKELEAEIECFDSTTGRDAGFGILEDGMIIDVNLNFARQLLFNNDFPLLKVLAAHTKFEVAIGLNGKIWVKCEELSNTLACYRTIMECCQKNDTAAFKDIAKRQFKEILT,soluble
17,KSIELYENNIPNGKTDAILIKNQTLISALKNPKQTKSSQRSSQSTNTQNDAICYLAFNSKIRPDDKDIFLLDKFGEKFVTAIVNFEEKTEVKINTLQEKEAVVLPAPQKFKPTDPKSVALVQGPSLIGIHANANEDRSTIKFLNW,not soluble
18,KSIYIQSPYFIPDQAFLDSIKIAALGGVDVNIMIPNKPDHPFVFWATLKNAASLLDAGVKVFHYDNGFLHSKTLVIDDEIASVGTANMDHRSFTLNFEVNAFIYDQQIAKKLKQAFIDDLAVSSELTKARYAKR,not soluble
19,KSPVREPVDNLSPEERDARTVFCMQLAARIRPRDLEDFFSAVGKVRDVRIISDRNSRRSKGIAYVEFCEIQSVPLAIGLTGQRLLGVPIIVQASQAEKNRL,soluble
20,KTHEGHCYIIKAHTPIEEFNEQLNADFSDETYDTIGGIVLNKFGYLPQRGEVIIIDDFEFKVLNADSRRIKLLECLDKR,soluble
21,KVLGDGSYLFEGKTSLSDVRHYLDLPENAFGELGDEVDTLSGLFLEIKQELPHVGDTAVYEPFRFQVTQMDKRRIIEIKIFPFERTWEVE,not soluble
22,KVQKIIVSEAGASVYSASELAAKEFPNMDVSLRGAVSIARRLQDPLAELVKIDPKSIGVGQYQHDVSQSMLVKRLDAIVEDCVNAVGVDVNTASAALLTRVAGLSSTIAQNIVDFRDENGRFEARTTLKKVPRLGPKAFEQCAGFLRIMDGKNPLDASAVHPEAYPVVKAIAEKNRKDIKALIGDSTFLKGLHAVDYTDEHFG,not soluble
23,KVQTDPPSVPICDLYPNGVFPKGQECEYPPTQDGRTAAWRTTSEEKKALDQASEEIWNDFREAAEAHRQVRKYVMSWIKPGMTMIEICEKLEDCSRKLIKENGLNAGLAFPTGCSLNNCAAHYTPNAGDTTVLQYDDICKIDFGTHISGRIIDCAFTVTFNPKYDTLLKAVKDATNTGIKCAGIDVRLCDVGEAIQEVMESYEVEIDGKTYQVKPIRNLNGHSIGQYRIHAGKTVPIIKGGEATRMEEGEVYAIETFGSTGKGVVHDDMECSHYMKNFDVGHVPIRLPRTKHLLNVINENFGTLAFCRRWLDRLGESKYLMALKNLCDLGIVDPYPPLCDIKGSYTAQFEHTILLRPTCKEVVSRGDDY,soluble
24,KVTNRHFQDVPALEVVTTTHLDQPLPLVIFYHGWQSNKELVLTQARKLARKNLRVVLPDAMNHGERHQIVSQIPSFTFWNSIQGNLGEFELIVNYYRERKLILNEQIGVGGYSMGGMTTGALLTHHPEIKAATIIMGTPNLNAYAQLVRKHAQAHAYYIPSDLALLTSWLDHYDLNLQPETINHRPLLFWHGTEDERIPYSQSRNFFDRVHTAPYAEQVAFITGYQAKHLVKVPLMNKVANFFDYYLN,not soluble
25,LDLNNPQYNDVYEINYDFIYSLRNIMDYVVRGDEWALDDYYEALDIRNDDLRWVLSDVQYRRFLGAEYFYRPIYVTGGRWNFRIYINYPNRSLFYFGVPYHYRTYCGAHYRPHIHHVSYYRGRYNNLVHYPTPYRVRDQRVFHSYRRSDFGSVRFRPNTSVRPHNAPTRPGTSGRPGTTSR,not soluble
